Data from patent publication US5811098, “Antibodies to HER4, human receptor tyrosine kinase” (Bristol-Myers Squibb Company, dated 1998).

How the values were obtained:
HER2/p185erbB2 (human) = HER2/p185erbB2 (human) (human); assay: cell-based or functional assay
HER3/p160erbB3 (human) = HER3/p160erbB3 (human) (human); assay: cell-based or functional assay
[1] = target: T1, p45, HER4 ligand purified from HepG2 conditioned medium (human, UniProt Q02297, 125I-labeled Bolton-Hunter reagent (in the binding and cross-linking assays)); assay: binding of 125I-p45 to CHO/HER4 cell monolayers, 2 h at 4° C, Scatchard analysis (LIGAND program)
T1 sequence: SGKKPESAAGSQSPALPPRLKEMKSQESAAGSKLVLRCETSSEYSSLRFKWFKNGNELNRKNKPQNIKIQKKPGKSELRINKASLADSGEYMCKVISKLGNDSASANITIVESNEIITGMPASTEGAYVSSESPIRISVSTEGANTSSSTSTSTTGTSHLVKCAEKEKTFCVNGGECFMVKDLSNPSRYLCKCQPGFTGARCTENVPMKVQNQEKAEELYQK

B1: HAR-TX β2, chimeric heregulin-toxin protein (other)
chain: MVVKPPQNKTESENTSDKPKRKKKGGKNGKNRRNRSHLIKCAEKEKTFCVNGGECFTVKDLSNPSRYLCKCPNEFTGDRCQNYVMASFYKAEELYKLMAEEGGSLAALTAHQACHLPLETFTRHRQPRGWEQLEQCGYPVQRLVALYLAARLSWNQVDQVIRNALASPGSGGDLGEAIREQPEQARLALTLAAAESERFVRQGTGNDEAGAANADVVSLTCPVAAGECAGPADSGDALLERNYPTGAEFLGDGGDVSFSTRGTQNWTVERLLQAHRQLEERGYVFVGYHGTFLEAAQSIVFGGVRARSQDLDAIWRGFYIAGDPALAYGYAQDQEPDARGRIRNGALLRVYVPRSSLPGFYRTSLTLAGGEAAGEVERLIGHPLPLRLDAITGPEEEGGRLETILGWPLAERTVVIPSAIPTDPRNVGGDLDPSSIPDKEQAISALPDYASQPGKPPREDLK
- EC50 of cytotoxicity, H3396 cells (HER2/p185erbB2 (human)): > 2 mg/L
- EC50 of cytotoxicity, L2987 cells (HER2/p185erbB2 (human)): > 2 mg/L
- EC50 of cytotoxicity, SK0V3 cells (HER2/p185erbB2 (human)): > 2 mg/L
- EC50 of cytotoxicity, H3396 cells (HER3/p160erbB3 (human)): > 2 mg/L
- EC50 of cytotoxicity, L2987 cells (HER3/p160erbB3 (human)): > 2 mg/L
- EC50 of cytotoxicity, SK0V3 cells (HER3/p160erbB3 (human)): > 2 mg/L

B2: HER4/p180erbB4 (human prototype HER4) (receptor)
chain: QSVCAGTENKLSSLSDLEQQYRALRKYYENCEVVMGNLEITSIEHNRDLSFLRSVREVTGYVLVALNQFRYLPLENLRIIRGTKLYEDRYALAIFLNYRKDGNFGLQELGLKNLTEILNGGVYVDQNKFLCYADTIHWQDIVRNPWPSNLTLVSTNGSSGCGRCHKSCTGRCWGPTENHCQTLTRTVCAEQCDGRCYGPYVSDCCHRECAGGCSGPKDTDCFACMNFNDSGACVTQCPQTFVYNPTTFQLEHNFNAKYTYGAFCVKKCPHNFVVDSSSCVRACPSSKMEVEENGIKMCKPCTDICPKACDGIGTGSLMSAQTVDSSNIDKFINCTKINGNLIFLVTGIHGDPYNAIEAIDPEKLNVFRTVREITGFLNIQSWPPNMTDFSVFSNLVTIGGRVLYSGLSLLILKQQGITSLQFQSLKEISAGNIYITDNSNLCYYHTINWTTLFSTINQRIVIRDNRKAENCTAEGMVCNHLCSSDGCWGPGPDQCLSCRRFSRGRICIESCNLYDGEFREFENGSICVECDPQCEKMEDGLLTCHGPGPDNCTKCSHFKDGPNCVEKCPDGLQGANSFIFKYADPDRECHPCHPNCTQGCNGPTSHDCIYYPWTGHSTLPQHARTPLIAAGVIGGLFILVIVGLTFAVYVRRKSIKKKRALRRFLETELVEPLTPSGTAPNQAQLRILKETELKRVKVLGSGAFGTVYKGIWVPEGETVKIPVAIKILNETTGPKANVEFMDEALIMASMDHPHLVRLLGVCLSPTIQLVTQLMPHGCLLEYVHEHKDNIGSQLLLNWCVQIAKGMMYLEERRLVHRDLAARNVLVKSPNHVKITDFGLARLLEGDEKEYNADGGKMPIKWMALECIHYRKFTHQSDVWSYGVTIWELMTFGGKPYDGIPTREIPDLLEKGERLPQPPICTIDVYMVMVKCWMIDADSRPKFKELAAEFSRMARDPQRYLVIQGDDRMKLPSPNDSKFFQNLLDEEDLEDMMDAEEYLVPQAFNIPPPIYTSRARIDSNRSEIGHSPPPAYTPMSGNQFVYRDGGFAAEQGVSVPYRAPTSTIPEAPVAQGATAEIFDDSCCNGTLRKPVAPHVQEDSSTQRYSADPTVFAPERSPRGELDEEGYMTPMRDKPKQEYLNPVEENPFVSRRKNGDLQALDNPEYHNASNGPPKAEDEYVNEPLYLNTFANTLGKAEYLKNNILSMPEKAKKAFDNPDYWNHSLPPRSTLQHPDYLQEYSTKYFYKQNGRIRPIVAENPEYLSEFSLKPGTVLPPPPYRHRNTVV
- Kd [1]: ~5 nM
